Test results as given in paper PMC8244254 (Current Research in Structural Biology, 2020).
Where a chain is given by its changes, count along the chain named. Names and notes keep the numbering of the source.

Target: the molecule itself
Assay: crystal structure; co-crystallisation by hanging-drop vapour diffusion at 20 °C; MOA variant 5 mg/ml pre-mixed with the trisaccharide Galα1,3(Fucα1,2)Gal (1:20) and the heptapeptide at 1:10 MOA:peptide molar ratio; crystals grew over 2-4 weeks

B1: Marasmius oreades agglutinin (MOA) variant C215A (enzyme)
chain: MSLRRGIYHIENAGVPSAIDLKDGSSSDGTPIVGWQFTPDTINWHQLWLAEPIPNVADTFTLCNLFSGTYMDLYNGSSEAGTAVNGWQGTAFTTNPHQLWTIKKSSDGTSYKIQNYGSKTFVDLVNGDSSDGAKIAGWTGTWDEGNPHQKWYFNRMSVSSAEAQAAIARNPHIHGTYRGYILDGEYLVLPNATFTQIWKDSGLPGSKWREQIYDADDFAIAMKAAVGKWGADSWKANGFAIFCGVMLGVNKAGDAAHAYNFTLTKDHADIVFFEPQNGGYLNDIGYDSYMAFY
notes: Marasmius oreades agglutinin (MOA), from the cDNA for wild-type MOA in vector MOApT7-LO; the final model holds residues 2-293, no density for the first methionine; One protomer in the asymmetric unit; the second subunit of the dimer comes from crystal symmetry; Construct described in Cordara et al. (2011); also called MOA C215A; MOA-C215A
binding result: binds

B2: Marasmius oreades agglutinin (MOA) variant C215A/H257A (enzyme)
chain: B1 chain with H257A
notes: Marasmius oreades agglutinin (MOA), from the cDNA for wild-type MOA in vector MOApT7-LO; the final model holds residues 2-293, no density for the first methionine; also called MOA C215A/H257A; MOA-C215A/H257A
binding result: binds
